Tests used:
[1] = target: recombinant HCIQ2c1 Kunitz-type peptide from Heteractis crispa (Heteractis crispa); assay: SPR; Biacore 3000; peptides covalently immobilised on a CM4 chip (970 RU rHCIQ2c1, 460 RU rHCIQ4c7); proteinases 1 nM to 5 μM flowed over; 25 °C; HBS: 0.15 M NaCl, 0.01 M HEPES, pH 7.4
[2] = target: recombinant HCIQ2c1 Kunitz-type peptide from Heteractis crispa (Heteractis crispa); assay: SPR; rHCIQ2c1 immobilised on a CM4 chip; temperature range of 10–40 °С at an interval of 5 °С; enthalpy from the temperature dependence of ΔG (Van't Hoff diagram)

Chain of recombinant HCIQ2c1 Kunitz-type peptide from Heteractis crispa (Heteractis crispa) (A0A6B7FBD3 28-85): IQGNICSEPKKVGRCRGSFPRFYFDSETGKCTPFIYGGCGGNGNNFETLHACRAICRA

| Substance | Ka [1] [M⁻¹] | Kd [1] [nM] | koff [1] [s⁻¹] | kon [1] [M⁻¹ s⁻¹] | dH [2] [kcal/mol] |
| --- | --- | --- | --- | --- | --- |
| α-chymotrypsin (enzyme) | 1.03e+07 | 97.4 | 0.00749 | 76900 | 4.68 |
| cathepsin G (from UniProt P08311 21-244) (enzyme) | 3.58e+09 | 0.279 | 0.000359 | 1.29e+06 |  |
